Measurements published in patent US20250171562A1.

B1: CIgG4F2A1(G4S)1 (Fc fusion)
chain 1: GPPCPPCPAPEFLGGPSVFLFPPKPKDTLMISRTPEVTCVVVDVSQEDPEVQFNWYVDGVEVHNAKTKPREEQFNSTYRVVSVLTVLHQDWLNGKEYKCKVSNKGLPSSIEKTISKAKGQPREPQVYTLPPCQEEMTKNQVSLWCLVKGFYPSDIAVEWESNGQPENNYKTTPPVLDSDGSFFLYSRLTVDKSRWQEGNVFSCSVMHEALHNHYTQKSLSLSLGKGGGGSDVQLQESGGGLVQAGGSLKLSCAASGGSLSRYDMGWFRQAPGKEREFVARISWSGDTKYYADAVEGRFAISRDNAQNTVYLQMNSLKPEDTAVYYCAVALYGNRGYYDVNTYSYWGQGTRVTVS
chain 2: GPPCPPCPAPEFLGGPSVFLFPPKPKDTLMISRTPEVTCVVVDVSQEDPEVQFNWYVDGVEVHNAKTKPREEQFNSTYRVVSVLTVLHQDWLNGKEYKCKVSNKGLPSSIEKTISKAKGQPREPQVCTLPPSQEEMTKNQVSLSCAVKGFYPSDIAVEWESNGQPENNYKTTPPVLDSDGSFFLVSRLTVDKSRWQEGNVFSCSVMHEALHNHYTQKSLSLSLGKGGGGSEVQLLESGGGLVQPGGSLRLSCAASGFTFGNYDMAWVRQAPGKRPEWVSSIDTGGDITHYADSVKGRFTISRDNAKNTLYLQMNSLRPEDTAVYWCATDEEYALGPNEFDYYGQGTLVTVSS
B2: CIgG4F2A1(G4S)2 (Fc fusion)
chain 1: GPPCPPCPAPEFLGGPSVFLFPPKPKDTLMISRTPEVTCVVVDVSQEDPEVQFNWYVDGVEVHNAKTKPREEQFNSTYRVVSVLTVLHQDWLNGKEYKCKVSNKGLPSSIEKTISKAKGQPREPQVYTLPPCQEEMTKNQVSLWCLVKGFYPSDIAVEWESNGQPENNYKTTPPVLDSDGSFFLYSRLTVDKSRWQEGNVFSCSVMHEALHNHYTQKSLSLSLGKGGGGSGGGGSDVQLQESGGGLVQAGGSLKLSCAASGGSLSRYDMGWFRQAPGKEREFVARISWSGDTKYYADAVEGRFAISRDNAQNTVYLQMNSLKPEDTAVYYCAVALYGNRGYYDVNTYSYWGQGTRVTVS
chain 2: GPPCPPCPAPEFLGGPSVFLFPPKPKDTLMISRTPEVTCVVVDVSQEDPEVQFNWYVDGVEVHNAKTKPREEQFNSTYRVVSVLTVLHQDWLNGKEYKCKVSNKGLPSSIEKTISKAKGQPREPQVCTLPPSQEEMTKNQVSLSCAVKGFYPSDIAVEWESNGQPENNYKTTPPVLDSDGSFFLVSRLTVDKSRWQEGNVFSCSVMHEALHNHYTQKSLSLSLGKGGGGSGGGGSEVQLLESGGGLVQPGGSLRLSCAASGFTFGNYDMAWVRQAPGKRPEWVSSIDTGGDITHYADSVKGRFTISRDNAKNTLYLQMNSLRPEDTAVYWCATDEEYALGPNEFDYYGQGTLVTVSS
B3: CIgG4F2A1(G4S)3 (Fc fusion)
chain 1: GPPCPPCPAPEFLGGPSVFLFPPKPKDTLMISRTPEVTCVVVDVSQEDPEVQFNWYVDGVEVHNAKTKPREEQFNSTYRVVSVLTVLHQDWLNGKEYKCKVSNKGLPSSIEKTISKAKGQPREPQVYTLPPCQEEMTKNQVSLWCLVKGFYPSDIAVEWESNGQPENNYKTTPPVLDSDGSFFLYSRLTVDKSRWQEGNVFSCSVMHEALHNHYTQKSLSLSLGKGGGGSGGGGSGGGGSDVQLQESGGGLVQAGGSLKLSCAASGGSLSRYDMGWFRQAPGKEREFVARISWSGDTKYYADAVEGRFAISRDNAQNTVYLQMNSLKPEDTAVYYCAVALYGNRGYYDVNTYSYWGQGTRVTVS
chain 2: GPPCPPCPAPEFLGGPSVFLFPPKPKDTLMISRTPEVTCVVVDVSQEDPEVQFNWYVDGVEVHNAKTKPREEQFNSTYRVVSVLTVLHQDWLNGKEYKCKVSNKGLPSSIEKTISKAKGQPREPQVCTLPPSQEEMTKNQVSLSCAVKGFYPSDIAVEWESNGQPENNYKTTPPVLDSDGSFFLVSRLTVDKSRWQEGNVFSCSVMHEALHNHYTQKSLSLSLGKGGGGSGGGGSGGGGSEVQLLESGGGLVQPGGSLRLSCAASGFTFGNYDMAWVRQAPGKRPEWVSSIDTGGDITHYADSVKGRFTISRDNAKNTLYLQMNSLRPEDTAVYWCATDEEYALGPNEFDYYGQGTLVTVSS
B4: NIgG4F3A1(RS) (Fc fusion)
chain 1: DVQLQESGGGLVQAGGSLKLSCAASRGSLSRWDVAWFRQAPGKERSFVTRISWSGTTSYYADAVKGRFAISRDNAKNTVYLQMNSLKPEDTAVYYCAVALYGNRGYYDVNAHSYWGQGTQVTVSRSGPPCPPCPAPEFLGGPSVFLFPPKPKDTLMISRTPEVTCVVVDVSQEDPEVQFNWYVDGVEVHNAKTKPREEQFNSTYRVVSVLTVLHQDWLNGKEYKCKVSNKGLPSSIEKTISKAKGQPREPQVYTLPPCQEEMTKNQVSLWCLVKGFYPSDIAVEWESNGQPENNYKTTPPVLDSDGSFFLYSRLTVDKSRWQEGNVFSCSVMHEALHNHYTQKSLSLSLGK
chain 2: EVQLLESGGGLVQPGGSLRLSCAASGFTFGNYDMAWVRQAPGKRPEWVSSIDTGGDITHYADSVKGRFTISRDNAKNTLYLQMNSLRPEDTAVYWCATDEEYALGPNEFDYYGQGTLVTVSSRSGPPCPPCPAPEFLGGPSVFLFPPKPKDTLMISRTPEVTCVVVDVSQEDPEVQFNWYVDGVEVHNAKTKPREEQFNSTYRVVSVLTVLHQDWLNGKEYKCKVSNKGLPSSIEKTISKAKGQPREPQVCTLPPSQEEMTKNQVSLSCAVKGFYPSDIAVEWESNGQPENNYKTTPPVLDSDGSFFLVSRLTVDKSRWQEGNVFSCSVMHEALHNHYTQKSLSLSLGK
B5: NIgG4F3A1(G4S)1 (Fc fusion)
chain 1: DVQLQESGGGLVQAGGSLKLSCAASRGSLSRWDVAWFRQAPGKERSFVTRISWSGTTSYYADAVKGRFAISRDNAKNTVYLQMNSLKPEDTAVYYCAVALYGNRGYYDVNAHSYWGQGTQVTVSGGGGSGPPCPPCPAPEFLGGPSVFLFPPKPKDTLMISRTPEVTCVVVDVSQEDPEVQFNWYVDGVEVHNAKTKPREEQFNSTYRVVSVLTVLHQDWLNGKEYKCKVSNKGLPSSIEKTISKAKGQPREPQVYTLPPCQEEMTKNQVSLWCLVKGFYPSDIAVEWESNGQPENNYKTTPPVLDSDGSFFLYSRLTVDKSRWQEGNVFSCSVMHEALHNHYTQKSLSLSLGK
chain 2: EVQLLESGGGLVQPGGSLRLSCAASGFTFGNYDMAWVRQAPGKRPEWVSSIDTGGDITHYADSVKGRFTISRDNAKNTLYLQMNSLRPEDTAVYWCATDEEYALGPNEFDYYGQGTLVTVSSGGGGSGPPCPPCPAPEFLGGPSVFLFPPKPKDTLMISRTPEVTCVVVDVSQEDPEVQFNWYVDGVEVHNAKTKPREEQFNSTYRVVSVLTVLHQDWLNGKEYKCKVSNKGLPSSIEKTISKAKGQPREPQVCTLPPSQEEMTKNQVSLSCAVKGFYPSDIAVEWESNGQPENNYKTTPPVLDSDGSFFLVSRLTVDKSRWQEGNVFSCSVMHEALHNHYTQKSLSLSLGK
B6: NIgG4F3A1(G4S)2 (Fc fusion)
chain 1: DVQLQESGGGLVQAGGSLKLSCAASRGSLSRWDVAWFRQAPGKERSFVTRISWSGTTSYYADAVKGRFAISRDNAKNTVYLQMNSLKPEDTAVYYCAVALYGNRGYYDVNAHSYWGQGTQVTVSGGGGSGGGGSGPPCPPCPAPEFLGGPSVFLFPPKPKDTLMISRTPEVTCVVVDVSQEDPEVQFNWYVDGVEVHNAKTKPREEQFNSTYRVVSVLTVLHQDWLNGKEYKCKVSNKGLPSSIEKTISKAKGQPREPQVYTLPPCQEEMTKNQVSLWCLVKGFYPSDIAVEWESNGQPENNYKTTPPVLDSDGSFFLYSRLTVDKSRWQEGNVFSCSVMHEALHNHYTQKSLSLSLGK
chain 2: EVQLLESGGGLVQPGGSLRLSCAASGFTFGNYDMAWVRQAPGKRPEWVSSIDTGGDITHYADSVKGRFTISRDNAKNTLYLQMNSLRPEDTAVYWCATDEEYALGPNEFDYYGQGTLVTVSSGGGGSGGGGSGPPCPPCPAPEFLGGPSVFLFPPKPKDTLMISRTPEVTCVVVDVSQEDPEVQFNWYVDGVEVHNAKTKPREEQFNSTYRVVSVLTVLHQDWLNGKEYKCKVSNKGLPSSIEKTISKAKGQPREPQVCTLPPSQEEMTKNQVSLSCAVKGFYPSDIAVEWESNGQPENNYKTTPPVLDSDGSFFLVSRLTVDKSRWQEGNVFSCSVMHEALHNHYTQKSLSLSLGK
B7: NIgG4F3A1(G4S)3 (Fc fusion)
chain 1: DVQLQESGGGLVQAGGSLKLSCAASRGSLSRWDVAWFRQAPGKERSFVTRISWSGTTSYYADAVKGRFAISRDNAKNTVYLQMNSLKPEDTAVYYCAVALYGNRGYYDVNAHSYWGQGTQVTVSGGGGSGGGGSGGGGSGPPCPPCPAPEFLGGPSVFLFPPKPKDTLMISRTPEVTCVVVDVSQEDPEVQFNWYVDGVEVHNAKTKPREEQFNSTYRVVSVLTVLHQDWLNGKEYKCKVSNKGLPSSIEKTISKAKGQPREPQVYTLPPCQEEMTKNQVSLWCLVKGFYPSDIAVEWESNGQPENNYKTTPPVLDSDGSFFLYSRLTVDKSRWQEGNVFSCSVMHEALHNHYTQKSLSLSLGK
chain 2: EVQLLESGGGLVQPGGSLRLSCAASGFTFGNYDMAWVRQAPGKRPEWVSSIDTGGDITHYADSVKGRFTISRDNAKNTLYLQMNSLRPEDTAVYWCATDEEYALGPNEFDYYGQGTLVTVSSGGGGSGGGGSGGGGSGPPCPPCPAPEFLGGPSVFLFPPKPKDTLMISRTPEVTCVVVDVSQEDPEVQFNWYVDGVEVHNAKTKPREEQFNSTYRVVSVLTVLHQDWLNGKEYKCKVSNKGLPSSIEKTISKAKGQPREPQVCTLPPSQEEMTKNQVSLSCAVKGFYPSDIAVEWESNGQPENNYKTTPPVLDSDGSFFLVSRLTVDKSRWQEGNVFSCSVMHEALHNHYTQKSLSLSLGK
B8: CIgG4F3A1(RS) (Fc fusion)
chain 1: GPPCPPCPAPEFLGGPSVFLFPPKPKDTLMISRTPEVTCVVVDVSQEDPEVQFNWYVDGVEVHNAKTKPREEQFNSTYRVVSVLTVLHQDWLNGKEYKCKVSNKGLPSSIEKTISKAKGQPREPQVYTLPPCQEEMTKNQVSLWCLVKGFYPSDIAVEWESNGQPENNYKTTPPVLDSDGSFFLYSRLTVDKSRWQEGNVFSCSVMHEALHNHYTQKSLSLSLGKRSDVQLQESGGGLVQAGGSLKLSCAASRGSLSRWDVAWFRQAPGKERSFVTRISWSGTTSYYADAVKGRFAISRDNAKNTVYLQMNSLKPEDTAVYYCAVALYGNRGYYDVNAHSYWGQGTQVTVS
chain 2: GPPCPPCPAPEFLGGPSVFLFPPKPKDTLMISRTPEVTCVVVDVSQEDPEVQFNWYVDGVEVHNAKTKPREEQFNSTYRVVSVLTVLHQDWLNGKEYKCKVSNKGLPSSIEKTISKAKGQPREPQVCTLPPSQEEMTKNQVSLSCAVKGFYPSDIAVEWESNGQPENNYKTTPPVLDSDGSFFLVSRLTVDKSRWQEGNVFSCSVMHEALHNHYTQKSLSLSLGKRSEVQLLESGGGLVQPGGSLRLSCAASGFTFGNYDMAWVRQAPGKRPEWVSSIDTGGDITHYADSVKGRFTISRDNAKNTLYLQMNSLRPEDTAVYWCATDEEYALGPNEFDYYGQGTLVTVSS

molecular target: mixture of three Der p 2 specific recombinant human IgE clones H10, H12, P4E (human) (UniProt P01854); test: RBL-SX38 IgE displacement, FACS
Sequence (P01854 other isoform, or with tags, fused parts or gaps): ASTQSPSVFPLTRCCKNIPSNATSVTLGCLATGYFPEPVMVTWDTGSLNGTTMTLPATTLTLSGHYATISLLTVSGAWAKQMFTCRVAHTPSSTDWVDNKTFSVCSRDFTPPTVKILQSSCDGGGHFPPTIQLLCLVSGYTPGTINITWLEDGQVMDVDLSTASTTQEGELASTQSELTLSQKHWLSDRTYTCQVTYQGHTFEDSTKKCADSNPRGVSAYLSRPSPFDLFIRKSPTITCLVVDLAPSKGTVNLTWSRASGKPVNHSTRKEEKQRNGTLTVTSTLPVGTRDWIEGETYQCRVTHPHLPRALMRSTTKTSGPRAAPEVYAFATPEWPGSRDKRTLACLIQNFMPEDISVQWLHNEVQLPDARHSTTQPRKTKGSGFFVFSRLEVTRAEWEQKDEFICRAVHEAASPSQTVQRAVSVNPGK

**Q.** B1 was tested. Which Max effect/effect 1 µM did it give?
**A.** 11%

**Q.** B2 was tested. Which Max effect/effect 1 µM did it give?
**A.** 0%

**Q.** B3 was tested. Which Max effect/effect 1 µM did it give?
**A.** 2%

**Q.** B4 was tested. Which EC50 did it give?
**A.** 2 nM

**Q.** And the Max effect/effect 1 µM?
**A.** 93%

**Q.** With B5 as the binder, how does the EC50 read?
**A.** 2 nM

**Q.** And the Max effect/effect 1 µM?
**A.** 93%

**Q.** B6 was tested. Which EC50 did it give?
**A.** 2 nM

**Q.** What about the Max effect/effect 1 µM of the same binder?
**A.** 95%

**Q.** For B7, which EC50 is on record?
**A.** 0.9 nM

**Q.** What about the Max effect/effect 1 µM of the same binder?
**A.** 94%

**Q.** How did the Max effect/effect 1 µM turn out when B8 was run?
**A.** 9%
